In paper PMC12149301:

Biological target: CDTb D623A + D734A Ca^2+-binding double mutant, active form (Clostridioides difficile)
Test: cryo-EM structure

With “CDTb D623A + D734A Ca^2+-binding double mutant, active form (natural protein)” as the substance, how does the stoichiometry N read?
The stoichiometry N was 7.
